According to patent US20220298217A1 (FLAGSHIP PIONEERING INNOVATIONS VI, published 2022):
“And” between values parts separate entries of the source, which are not always exact repeats. Equal entries are not always repeated.

T1: PTHR1 on CHO-K1/Ga15/PTHR1 cells (UniProt Q03431 27-593, limits assumed)
T1 sequence (looked up): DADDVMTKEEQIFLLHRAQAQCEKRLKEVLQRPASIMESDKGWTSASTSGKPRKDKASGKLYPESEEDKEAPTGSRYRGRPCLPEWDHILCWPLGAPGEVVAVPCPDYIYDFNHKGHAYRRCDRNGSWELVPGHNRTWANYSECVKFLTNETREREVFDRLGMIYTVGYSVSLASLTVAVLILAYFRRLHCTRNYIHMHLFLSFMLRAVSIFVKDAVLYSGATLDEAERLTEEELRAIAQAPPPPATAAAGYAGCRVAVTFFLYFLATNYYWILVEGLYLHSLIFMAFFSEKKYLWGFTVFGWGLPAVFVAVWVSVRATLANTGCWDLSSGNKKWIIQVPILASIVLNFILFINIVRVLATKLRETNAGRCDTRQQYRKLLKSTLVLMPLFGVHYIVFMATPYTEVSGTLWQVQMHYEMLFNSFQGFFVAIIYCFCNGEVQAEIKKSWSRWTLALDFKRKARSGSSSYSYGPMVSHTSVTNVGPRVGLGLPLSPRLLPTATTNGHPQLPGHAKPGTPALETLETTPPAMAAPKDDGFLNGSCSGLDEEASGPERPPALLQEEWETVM

T2: Flag-PTHR1-YFP (parathyroid hormone receptor 1) expressed in transfected HEK293T cells (human, UniProt Q03431 27-593)
T2 sequence (looked up): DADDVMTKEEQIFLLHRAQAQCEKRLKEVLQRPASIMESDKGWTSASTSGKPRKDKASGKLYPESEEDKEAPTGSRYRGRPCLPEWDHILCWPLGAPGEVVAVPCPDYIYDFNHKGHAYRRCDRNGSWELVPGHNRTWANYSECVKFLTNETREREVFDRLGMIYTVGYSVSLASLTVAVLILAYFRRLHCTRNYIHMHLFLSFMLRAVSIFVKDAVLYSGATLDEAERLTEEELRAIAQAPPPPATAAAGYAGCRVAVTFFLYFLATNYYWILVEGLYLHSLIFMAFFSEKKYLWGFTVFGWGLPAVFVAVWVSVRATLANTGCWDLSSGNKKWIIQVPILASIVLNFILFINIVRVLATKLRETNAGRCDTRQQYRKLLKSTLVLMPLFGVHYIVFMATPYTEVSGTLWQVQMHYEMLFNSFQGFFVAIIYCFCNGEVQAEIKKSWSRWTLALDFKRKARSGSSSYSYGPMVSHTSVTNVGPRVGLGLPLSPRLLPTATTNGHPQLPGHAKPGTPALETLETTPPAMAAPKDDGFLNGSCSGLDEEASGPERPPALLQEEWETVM


Biological target: T1, PTHR1 on CHO-K1/Ga15/PTHR1 cells
Experiment: cell-based or functional assay

cAMP accumulation (HTRF): -log10EC50	cAMP accumulation (HTRF): Emax	Binder
-7.02 -log10EC50 (as headed)	102%	GVAELQLMHDLAKIRAEYELREMLLRLLEEIF [R2-1, listing 1 of 2 here]

Biological target: T2, Flag-PTHR1-YFP (parathyroid hormone …)
Experiment: cell-based or functional assay

arrestin 1, plate 17: -log10EC50	arrestin 2, plate 18: -log10EC50	arrestin 1, plate 9: -log10EC50	arrestin 1, plate 9: Emax	arrestin 2, plate 10: -log10EC50	arrestin 1, plate 7: -log10EC50	arrestin 2, plate 8: -log10EC50	arrestin 1, plate 15: -log10EC50	arrestin 2, plate 16: -log10EC50	arrestin 1, plate 13: -log10EC50	Binder
-8.15 -log10EC50 and -8.77 -log10EC50	-8.39 -log10EC50 and -8.46 -log10EC50									AVAEIQLMHQRAKWKLELELKEKIRKLLEDLL [R2-29]
		-8.43 -log10EC50	6.29	-9.46 -log10EC50						SVMMIQVMHDLAKIRAEYELREMLLRLLEEIF [R2-8]
					-14 -log10EC50 and -12.2 -log10EC50	5.1 -log10EC50 and -14.8 -log10EC50				GVAMIQIMHDIAKIRAEYELREMLLRLLEEIF [R2-2]
							-8.27 -log10EC50 and -8.59 -log10EC50	-8.37 -log10EC50 and -8.76 -log10EC50		AVAEIQLMHQRAKWKLELELKVKLLEILKDVY [R2-25]
									-8.54 -log10EC50	AVAEIQLMHQRAKWSLREELEKLLKELLKEYI [R2-44]
-8 -log10EC50 and -8.53 -log10EC50	-8.12 -log10EC50 and -8.18 -log10EC50									AVAEIQLMHQRAKWGLDLELRARLREILRDVY [R2-31]
									-6.32 -log10EC50	AVAEIQLMHQRAKWGLEIELLKLLLSLLKEYI [R2-45]
-15 -log10EC50	-6.1 -log10EC50									AVAEIQLMHQRAKWGLDLELAVKLQEILKDVL [R2-28]
									-6.25 -log10EC50	AVAEIQLMHQRAKWSILEELLKILTALLDEYI [R2-46]
		-8.83 -log10EC50	7.4							AVAEIQLMHQRAKWKLELELKAFLDQILKDVL [R2-36]
		-3.53 -log10EC50	16.9							AVAEIQLMHQRAKWGVELQLKVDLRRILEDVY [R2-35]
		-8.56 -log10EC50	7.29							AVAEIQLMHQRAKWRLEIELLKKLKEILKDVY [R2-34]
									-5.84 -log10EC50	AVAEIQLMHQRAKWDVLIELAKLLAELLRRYH [R2-47]
		-8.23 -log10EC50	7.38	-8.31 -log10EC50						AVAEIQLMHQRAKWLNELRLKEEMRKILEDVY [R2-33]
-7.88 -log10EC50 and -8.28 -log10EC50	-7.92 -log10EC50 and -8.3 -log10EC50									AVAEIQLMHQRAKWLEELKLKDDLRKILEDVY [R2-30]
					-15 -log10EC50	-9.21 -log10EC50				GVAELQLMHDLAKIRAEYELREMLLRLLEEIF [R2-1, listing 2 of 2 here]
		-5.08 -log10EC50	19.4							AVAEIQLMHQRAKWEIQEIGIKITLELLKEYI [R2-37]
-7.89 -log10EC50 and -7.57 -log10EC50	-7.79 -log10EC50 and -7.9 -log10EC50									AVAEIQLMHQRAKWGLELELKEKLRKILEDVY [R2-26]
									-8.31 -log10EC50	AVAEIQLMHQRAKWELQEIGIAITLRLLARYI [R2-43]
							-5.92 -log10EC50			GVAMLQIMHDLAKIKQELELKDSMKKILEDVL [R2-50]
-7.92 -log10EC50 and -8.02 -log10EC50	-7.65 -log10EC50 and -8.08 -log10EC50									AVAEIQLMHQRAKWKLDLELAVSLRKILEDVY [R2-27]
									-5.72 -log10EC50	AVAEIQLMHQRAKWKILEELLKILIDLLKQYI [R2-48]
							-8.79 -log10EC50	-14 -log10EC50		GIAVITLMDLRAYLRAEYELREMLLRLLEEIF [R2-13]

Binder	arrestin 1, plate 17: -log10EC50	arrestin 2, plate 18: -log10EC50	arrestin 1, plate 9: -log10EC50	arrestin 1, plate 9: Emax	arrestin 2, plate 10: -log10EC50	arrestin 1, plate 7: -log10EC50	arrestin 2, plate 8: -log10EC50	arrestin 1, plate 15: -log10EC50	arrestin 2, plate 16: -log10EC50	arrestin 1, plate 13: -log10EC50
AVAEIQLMHQRAKWELEYELFEMFLKLLEEIF [I1 (R1-100)]						-6.22 -log10EC50 (2×) and -6.24 -log10EC50	-5.41 -log10EC50 and -7.67 -log10EC50 and -6.27 -log10EC50			

Same assay, conditions: not given

arrestin 1, plate 13: Emax	arrestin 1, plate 23: -log10EC50	arrestin 2, plate 24: -log10EC50	arrestin 1, plate 17: Emax	arrestin 2, plate 18: Emax	arrestin 1, plate 11: -log10EC50	arrestin 1, plate 11: Emax	arrestin 1, plate 21: -log10EC50	arrestin 2, plate 22: -log10EC50	arrestin 1, plate 21: Emax	Binder
7.41	-7.82 -log10EC50 and -8.55 -log10EC50	-7.99 -log10EC50 and -5.45 -log10EC50								AVAEIQLMHQRAKWSLREELEKLLKELLKEYI [R2-44]
20.4	-6.33 -log10EC50 and -6.27 -log10EC50	-6.47 -log10EC50 and -6.59 -log10EC50								AVAEIQLMHQRAKWGLEIELLKLLLSLLKEYI [R2-45]
			6.35	18.5						AVAEIQLMHQRAKWGLDLELAVKLQEILKDVL [R2-28]
17.3	-6.35 -log10EC50 and -6.4 -log10EC50	-6.26 -log10EC50 and -6.27 -log10EC50								AVAEIQLMHQRAKWSILEELLKILTALLDEYI [R2-46]
					2.64 -log10EC50	15.4	-6.11 -log10EC50 and -6.23 -log10EC50	-6.95 -log10EC50 and -6.4 -log10EC50		AVAEIQLMHQRAKWELQEIGIKITLDLLEAYL [R2-39]
							-8.42 -log10EC50	-6.03 -log10EC50	6.44	AVAEIQLMHQRAKWEIQEIGIKITLDLLQTLK [R2-41]
					-6.24 -log10EC50	14.7	-5.44 -log10EC50	-6.07 -log10EC50	11.4	AVAEIQLMHQRAKWDLLIELVKLLHELLKEYI [R2-40]
							-10.7 -log10EC50	-14 -log10EC50	6.36	AVAEIQLMHQRAKWELLEELLKILLELLKEYI [R2-38]
15.7	-6.19 -log10EC50 and -5.44 -log10EC50	-5.46 -log10EC50 and -5.86 -log10EC50								AVAEIQLMHQRAKWDVLIELAKLLAELLRRYH [R2-47]
					-7.98 -log10EC50	7.87	-4.99 -log10EC50 and -7.96 -log10EC50	-7.63 -log10EC50 and -8.09 -log10EC50		AVAEIQLMHQRAKWAIQEIGIKITRELLERYL [R2-42]
7.23	-6.3 -log10EC50 and -8.03 -log10EC50	-6.24 -log10EC50 and -7.91 -log10EC50								AVAEIQLMHQRAKWELQEIGIAITLRLLARYI [R2-43]
15.1	-15.4 -log10EC50	-10.7 -log10EC50								AVAEIQLMHQRAKWKILEELLKILIDLLKQYI [R2-48]

Same assay, conditions: not given

arrestin 2, plate 22: Emax	arrestin 1, plate 19: -log10EC50	arrestin 2, plate 20: -log10EC50	arrestin 1, plate 1: -log10EC50	arrestin 2, plate 2: -log10EC50	arrestin 1, plate 5: -log10EC50	arrestin 1, plate 25: -log10EC50	arrestin 1, plate 25: Emax	arrestin 2, plate 6: -log10EC50	arrestin 2, plate 26: -log10EC50	Binder
23.7										AVAEIQLMHQRAKWEIQEIGIKITLDLLQTLK [R2-41]
	-8.33 -log10EC50 and -8.54 -log10EC50	-8.27 -log10EC50 and -8.6 -log10EC50								AVAEIQLMHQRAKWKLELELKAFLDQILKDVL [R2-36]
20.9										AVAEIQLMHQRAKWDLLIELVKLLHELLKEYI [R2-40]
	-6.57 -log10EC50 and -7.44 -log10EC50	-7.67 -log10EC50 and -7.82 -log10EC50								AVAEIQLMHQRAKWGVELQLKVDLRRILEDVY [R2-35]
			-8.58 -log10EC50 and -8.76 -log10EC50 and -8.45 -log10EC50	-8.52 -log10EC50 and -8.51 -log10EC50 and -8.44 -log10EC50						AVAEIQLMHQRAKWIQDARRRAFLHKLIAEIH [LA-PM-FL (R1-81)]
					-5.38 -log10EC50 and -8.1 -log10EC50 and -6.02 -log10EC50	-11.5 -log10EC50	10.3	-6.2 -log10EC50 and -5.16 -log10EC50 and -6.19 -log10EC50	-6.36 -log10EC50	AVAEIQLMHQRAKWELEFELFREFLKLLVDFF [I3 (R1-97)]
	-8.18 -log10EC50 and -8.48 -log10EC50	-8.09 -log10EC50 and -8.34 -log10EC50								AVAEIQLMHQRAKWRLEIELLKKLKEILKDVY [R2-34]
6.45										AVAEIQLMHQRAKWELLEELLKILLELLKEYI [R2-38]
	-7.99 -log10EC50 and -8.4 -log10EC50	-8.09 -log10EC50 and -8.12 -log10EC50								AVAEIQLMHQRAKWLNELRLKEEMRKILEDVY [R2-33]
						-9.83 -log10EC50	6.37			GIAVITLMLLRAYLELLEELVKILHELLRRYH [R2-52]
	-3.6 -log10EC50 and -6.48 -log10EC50	-6.3 -log10EC50 and -6.41 -log10EC50								AVAEIQLMHQRAKWEIQEIGIKITLELLKEYI [R2-37]
						-13.8 -log10EC50	6.47		-13.9 -log10EC50	GVAMLQIMHDLAKIKQELELKDSMKKILEDVL [R2-50]
						-4.53 -log10EC50	12.5		-13.8 -log10EC50	GIAVITLMVLRALLELQEIGRKITLELLKEYI [R2-51]

Same assay, conditions: not given

arrestin 2, plate 26: Emax	arrestin 1, plate 7: Emax	arrestin 2, plate 8: Emax	arrestin 1, plate 15: Emax	arrestin 1, plate 23: Emax	arrestin 2, plate 24: Emax	arrestin 2, plate 16: Emax	Binder
21.5							AVAEIQLMHQRAKWELEFELFREFLKLLVDFF [I3 (R1-97)]
6.48							GIAVITLMLLRAYLELLEELVKILHELLRRYH [R2-52]
	6.35	6.41					GVAELQLMHDLAKIRAEYELREMLLRLLEEIF [R2-1, listing 2 of 2 here]
6.62			32.9				GVAMLQIMHDLAKIKQELELKDSMKKILEDVL [R2-50]
				6.53	6.67		AVAEIQLMHQRAKWKILEELLKILIDLLKQYI [R2-48]
6.47							GIAVITLMVLRALLELQEIGRKITLELLKEYI [R2-51]
			6.38			6.59	GIAVITLMDLRAYLRAEYELREMLLRLLEEIF [R2-13]
